Data as given in patent EP1226177B1 (GENENTECH, INC., dated 2008).

Target: T1, gD-huPSCA expressed on the surface of transfected cells (Herpes Simplex virus; human, UniProt O43653 12-114)
T1 construct: domain: 25 amino acids of the mature gD; also called gD-PSCA; gDPSCA
Experiment: cold competition of 125I-Mab 2403 by unlabeled Mab 2403 on PC3.gD.hu PSCA cells, four parameter fit (m3 = IC50)

B1: anti-PSCA monoclonal antibody 5F2.4H4.1E3 (antibody, V domains shown)
VH: QVQVQQPGAELVKPGAPVKLSCKASGYTFTNYWLNWVKQRPGRGLEWIGRIDPSDSEIHYDQKFKDKATLTVDKSSSTAYIQLSSLTSEDSAVYYCALTGIYAMAYWGQGTSVTVSS
VL: DIVMTQAAPSVPVTPGESVSISCRSSKSLLHSNGNTYLYWFLQRPGQSPQLLIYRMSNLASGVPDRFSGSGSGTAFTLRISRVEAEDVGVYYCLQHLEYPYTFGGGTKLELKR
notes: also called 2403; Mab 2403
Question: How did the IC50 turn out when B1 was run?
Answer: 13 nM
